Results taken from the RNAGym collection of RNA variant scans (doi:10.7554/elife.80360).

B1: CPEB3 Ribozyme (parent)
chain: GGGGGCCACAGCAGAAGCGUUCACGUCGCGGCCCCUGUCAGAUUCUGGUGAAUCUGCGAAUUCUGCUGU

Variants of: B1
Assay: self-cleavage, relative activity (ratio to wild type); higher = more cleavage; co-transcriptional

Compared with UGGGGCCACAGCAGAAGCGUUCACGUCGCGGCCCCUGUCAGAUUCUGGUGAAUCUGCCAAUUCUGCUGU [G1U G58C], UGGGGCCACAGCAGAAGCGUUCACGUCGCGGCCCCUGUCAGAUUCUGGUGAAUCUGCUAAUUCUGCUGU [G1U G58U] is higher in self-cleavage: 0.128 for the first, 0.137 for the second.

Compared with UGGGGCCACAGCAGAAGCGUUCACGUCGCGGCCCCUGUCAGAUUCUGGUGAAUCUGCGAAUUCUACUGU [G1U G65A], UGGGGCCACAGCAGAAGCGUUCACGUCGCGGCCCCUGUCAGAUUCUGGUGAAUCUGCGAAUUCUCCUGU [G1U G65C] is lower in self-cleavage: 0.0898 for the first, 0.0555 for the second.

Compared with UGGGGCCACAGCAGAAGCGUUCACGUCGCGGCCCCUGUCAGAUUCUGGUGAAUCUGCGAAUUCUUCUGU [G1U G65U], UGGGGCCACAGCAGAAGCGUUCACGUCGCGGCCCCUGUCAGAUUCUGGUGAAUCUGCGAAUUCUGCUAU [G1U G68A] is higher in self-cleavage: 0.0644 for the first, 0.129 for the second.

First: UGGGGCCACAGCAGAAGCGUUCACGUCGCGGCCCCUGUCAGAUUCUGGUGAAUCUGCGAAUUCUGCUCU [G1U G68C]
Second: UGGGGCCACAGCAGAAGCGUUCACGUCGCGGCCCCUGUCAGAUUCUGGUGAAUCUGCGAAUUCUGCUUU [G1U G68U]
The self-cleavage of the first is lower: 0.0929 for the first, 0.173 for the second.

Going from UGGGGCCACAGCAGAAGCGAUCACGUCGCGGCCCCUGUCAGAUUCUGGUGAAUCUGCGAAUUCUGCUGU [G1U U20A] to UGGGGCCACAGCAGAAGCGUCCACGUCGCGGCCCCUGUCAGAUUCUGGUGAAUCUGCGAAUUCUGCUGU [G1U U21C], the self-cleavage rises from 0.042 to 0.119.

Going from UGGGGCCACAGCAGAAGCGUGCACGUCGCGGCCCCUGUCAGAUUCUGGUGAAUCUGCGAAUUCUGCUGU [G1U U21G] to UGGGGCCACAGCAGAAGCGUUCACGCCGCGGCCCCUGUCAGAUUCUGGUGAAUCUGCGAAUUCUGCUGU [G1U U26C], the self-cleavage falls from 0.0804 to 0.0437.

Compared with UGGGGCCACAGCAGAAGCGUUCACGUCGCGGCCCCCGUCAGAUUCUGGUGAAUCUGCGAAUUCUGCUGU [G1U U36C], UGGGGCCACAGCAGAAGCGUUCACGUCGCGGCCCCGGUCAGAUUCUGGUGAAUCUGCGAAUUCUGCUGU [G1U U36G] is lower in self-cleavage: 0.102 for the first, 0.0723 for the second.

Going from UGGGGCCACAGCAGAAGCGUUCACGUCGCGGCCCCUGCCAGAUUCUGGUGAAUCUGCGAAUUCUGCUGU [G1U U38C] to UGGGGCCACAGCAGAAGCGUUCACGUCGCGGCCCCUGGCAGAUUCUGGUGAAUCUGCGAAUUCUGCUGU [G1U U38G], the self-cleavage falls from 0.0816 to 0.0202.

Going from UGGGGCCACAGCAGAAGCGUUCACGUCGCGGCCCCUGUCAGAAUCUGGUGAAUCUGCGAAUUCUGCUGU [G1U U43A] to UGGGGCCACAGCAGAAGCGUUCACGUCGCGGCCCCUGUCAGACUCUGGUGAAUCUGCGAAUUCUGCUGU [G1U U43C], the self-cleavage rises from 0.0877 to 0.127.

Compared with UGGGGCCACAGCAGAAGCGUUCACGUCGCGGCCCCUGUCAGAGUCUGGUGAAUCUGCGAAUUCUGCUGU [G1U U43G], UGGGGCCACAGCAGAAGCGUUCACGUCGCGGCCCCUGUCAGAUACUGGUGAAUCUGCGAAUUCUGCUGU [G1U U44A] is lower in self-cleavage: 0.113 for the first, 0.0951 for the second.

First: UGGGGCCACAGCAGAAGCGUUCACGUCGCGGCCCCUGUCAGAUCCUGGUGAAUCUGCGAAUUCUGCUGU [G1U U44C]
Second: UGGGGCCACAGCAGAAGCGUUCACGUCGCGGCCCCUGUCAGAUGCUGGUGAAUCUGCGAAUUCUGCUGU [G1U U44G]
The self-cleavage of the first is lower: 0.106 for the first, 0.127 for the second.

First: UGGGGCCACAGCAGAAGCGUUCACGUCGCGGCCCCUGUCAGAUUCAGGUGAAUCUGCGAAUUCUGCUGU [G1U U46A]
Second: UGGGGCCACAGCAGAAGCGUUCACGUCGCGGCCCCUGUCAGAUUCGGGUGAAUCUGCGAAUUCUGCUGU [G1U U46G]
The self-cleavage of the first is higher: 0.123 for the first, 0.0728 for the second.

Going from UGGGGCCACAGCAGAAGCGUUCACGUCGCGGCCCCUGUCAGAUUCUGGAGAAUCUGCGAAUUCUGCUGU [G1U U49A] to UGGGGCCACAGCAGAAGCGUUCACGUCGCGGCCCCUGUCAGAUUCUGGCGAAUCUGCGAAUUCUGCUGU [G1U U49C], the self-cleavage falls from 0.124 to 0.0511.

Compared with UGGGGCCACAGCAGAAGCGUUCACGUCGCGGCCCCUGUCAGAUUCUGGGGAAUCUGCGAAUUCUGCUGU [G1U U49G], UGGGGCCACAGCAGAAGCGUUCACGUCGCGGCCCCUGUCAGAUUCUGGUGAAACUGCGAAUUCUGCUGU [G1U U53A] is lower in self-cleavage: 0.152 for the first, 0.0914 for the second.

Compared with UGGGGCCACAGCAGAAGCGUUCACGUCGCGGCCCCUGUCAGAUUCUGGUGAAGCUGCGAAUUCUGCUGU [G1U U53G], UGGGGCCACAGCAGAAGCGUUCACGUCGCGGCCCCUGUCAGAUUCUGGUGAAUCAGCGAAUUCUGCUGU [G1U U55A] is higher in self-cleavage: 0.101 for the first, 0.109 for the second.

Going from UGGGGCCACAGCAGAAGCGUUCACGUCGCGGCCCCUGUCAGAUUCUGGUGAAUCCGCGAAUUCUGCUGU [G1U U55C] to UGGGGCCACAGCAGAAGCGUUCACGUCGCGGCCCCUGUCAGAUUCUGGUGAAUCGGCGAAUUCUGCUGU [G1U U55G], the self-cleavage rises from 0.0608 to 0.118.

Going from UGGGGCCACAGCAGAAGCGUUCACGUCGCGGCCCCUGUCAGAUUCUGGUGAAUCUGCGAAAUCUGCUGU [G1U U61A] to UGGGGCCACAGCAGAAGCGUUCACGUCGCGGCCCCUGUCAGAUUCUGGUGAAUCUGCGAAGUCUGCUGU [G1U U61G], the self-cleavage rises from 0.0989 to 0.208.

Compared with UGGGGCCACAGCAGAAGCGUUCACGUCGCGGCCCCUGUCAGAUUCUGGUGAAUCUGCGAAUACUGCUGU [G1U U62A], UGGGGCCACAGCAGAAGCGUUCACGUCGCGGCCCCUGUCAGAUUCUGGUGAAUCUGCGAAUCCUGCUGU [G1U U62C] is lower in self-cleavage: 0.137 for the first, 0.0771 for the second.

Compared with UGGGGCCACAGCAGAAGCGUUCACGUCGCGGCCCCUGUCAGAUUCUGGUGAAUCUGCGAAUGCUGCUGU [G1U U62G], UGGGGCCACAGCAGAAGCGUUCACGUCGCGGCCCCUGUCAGAUUCUGGUGAAUCUGCGAAUUCAGCUGU [G1U U64A] is lower in self-cleavage: 0.0907 for the first, 0.0494 for the second.

Work on UGGGGCCACAGCAGAAGCGUUCACGUCGCGGCCCCUGUCAGAUUCUGGUGAAUCUGCGAAUUCCGCUGU [G1U U64C] yielded a self-cleavage of 0.0613.
